Target: SecYEG(148/298) labeled with Cy3 and Atto647N, embedded in nanodiscs (UniProt P0AGA2)
Experiment: not stated; ratio of YidC to SecY in nanodiscs prepared with YidC at a concentration equal to that of SecYEG (SI Appendix, Fig. S9A)

stoichiometry N: 1 YidC:SecY
B1: YidC (natural protein)
chain: MDSQRNLLVIALLFVSFMIWQAWEQDKNPQPQAQQTTQTTTTAAGSAADQGVPASGQGKLISVKTDVLDLTINTRGGDVEQALLPAYPKELNSTQPFQLLETSPQFIYQAQSGLTGRDGPDNPANGPRPLYNVEKDAYVLAEGQNELQVPMTYTDAAGNTFTKTFVLKRGDYAVNVNYNVQNAGEKPLEISSFGQLKQSITLPPHLDTGSSNFALHTFRGAAYSTPDEKYEKYKFDTIADNENLNISSKGGWVAMLQQYFATAWIPHNDGTNNFYTANLGNGIAAIGYKSQPVLVQPGQTGAMNSTLWVGPEIQDKMAAVAPHLDLTVDYGWLWFISQPLFKLLKWIHSFVGNWGFSIIIITFIVRGIMYPLTKAQYTSMAKMRMLQPKIQAMRERLGDDKQRISQEMMALYKAEKVNPLGGCFPLLIQMPIFLALYYMLMGSVELRQAPFALWIHDLSAQDPYYILPILMGVTMFFIQKMSPTTVTDPMQQKIMTFMPVIFTVFFLWFPSGLVLYYIVSNLVTIIQQQLIYRGLEKRGLHSREKKKS

Source: paper PMC8256087
